Data from patent US20100189713A1 (Biogen, published 2010).

Legend:
[1] = target: T1, full-length mouse plexin-A2 protein, N-terminal myc-tag, stably expressed on L cells (mouse, UniProt P70207 35-1894); assay: AP-fusion binding to L cells stably expressing plexin-A2, colorimetric AP activity of cell lysates
T1 construct: whole, on cells; also called plexin-A2 expressing L cells
Experimental: In order to show the binding of Sema6A to Plexin-A2, L-cells that stably express the full-length mouse plexin-A2 proteins were incubated with 250 μl of HBSS with 0.5 mg/ml BSA, 0.1% NaN₃, and 20 mM HEPES, pH 7.0 (HBHA solution) containing 1% FBS and the AP-Sema6Aect-Fc recombinant proteins (the culture supernatant) for 1 h on ice as described in Flanagan and Leder, Cell 63: 185-194 (1990). After removal of the HBHA solution, cells were treated with 250 μl of 10 mM Tris-HCl, pH 8.0, supplemented with 0.1% Triton X-100 to dissolve the recombinant proteins bound to the cell surface. The cell lysates were subjected to colorimetric analysis to measure AP activity as described in Flanagan and Leder, Cell 63: 185-194 (1990) and Flanagan et al., Methods Enzymol 327: 17-35 (2000).
It was shown that the Fc-dimerized recombinant AP-tagged ectodomain of Sema6A bound with a high affinity to plexin-A2 expressing L cells. […] 25: 3628-3637 (2005).

[2] = target: T2, plexin-A2A396E expressed in COS7 cells (mouse, UniProt P70207 35-1894); assay: AP-fusion binding assay on transfected COS7 cells
T2 construct: whole, on cells; Same point mutation as in NMF454 mice, made by site-directed mutagenesis; also called mutated plexin-A2A396E; NMF454 mutation
Experimental: This plexin-A2A396E cDNA was then expressed in COS7 cells, and its ability to bind Sema6A-AP was tested using the same method shown in Example 8. See Suto et al. Neuron 53: 5354 (2007).

T2 sequence (P70207 35-1894 A396E): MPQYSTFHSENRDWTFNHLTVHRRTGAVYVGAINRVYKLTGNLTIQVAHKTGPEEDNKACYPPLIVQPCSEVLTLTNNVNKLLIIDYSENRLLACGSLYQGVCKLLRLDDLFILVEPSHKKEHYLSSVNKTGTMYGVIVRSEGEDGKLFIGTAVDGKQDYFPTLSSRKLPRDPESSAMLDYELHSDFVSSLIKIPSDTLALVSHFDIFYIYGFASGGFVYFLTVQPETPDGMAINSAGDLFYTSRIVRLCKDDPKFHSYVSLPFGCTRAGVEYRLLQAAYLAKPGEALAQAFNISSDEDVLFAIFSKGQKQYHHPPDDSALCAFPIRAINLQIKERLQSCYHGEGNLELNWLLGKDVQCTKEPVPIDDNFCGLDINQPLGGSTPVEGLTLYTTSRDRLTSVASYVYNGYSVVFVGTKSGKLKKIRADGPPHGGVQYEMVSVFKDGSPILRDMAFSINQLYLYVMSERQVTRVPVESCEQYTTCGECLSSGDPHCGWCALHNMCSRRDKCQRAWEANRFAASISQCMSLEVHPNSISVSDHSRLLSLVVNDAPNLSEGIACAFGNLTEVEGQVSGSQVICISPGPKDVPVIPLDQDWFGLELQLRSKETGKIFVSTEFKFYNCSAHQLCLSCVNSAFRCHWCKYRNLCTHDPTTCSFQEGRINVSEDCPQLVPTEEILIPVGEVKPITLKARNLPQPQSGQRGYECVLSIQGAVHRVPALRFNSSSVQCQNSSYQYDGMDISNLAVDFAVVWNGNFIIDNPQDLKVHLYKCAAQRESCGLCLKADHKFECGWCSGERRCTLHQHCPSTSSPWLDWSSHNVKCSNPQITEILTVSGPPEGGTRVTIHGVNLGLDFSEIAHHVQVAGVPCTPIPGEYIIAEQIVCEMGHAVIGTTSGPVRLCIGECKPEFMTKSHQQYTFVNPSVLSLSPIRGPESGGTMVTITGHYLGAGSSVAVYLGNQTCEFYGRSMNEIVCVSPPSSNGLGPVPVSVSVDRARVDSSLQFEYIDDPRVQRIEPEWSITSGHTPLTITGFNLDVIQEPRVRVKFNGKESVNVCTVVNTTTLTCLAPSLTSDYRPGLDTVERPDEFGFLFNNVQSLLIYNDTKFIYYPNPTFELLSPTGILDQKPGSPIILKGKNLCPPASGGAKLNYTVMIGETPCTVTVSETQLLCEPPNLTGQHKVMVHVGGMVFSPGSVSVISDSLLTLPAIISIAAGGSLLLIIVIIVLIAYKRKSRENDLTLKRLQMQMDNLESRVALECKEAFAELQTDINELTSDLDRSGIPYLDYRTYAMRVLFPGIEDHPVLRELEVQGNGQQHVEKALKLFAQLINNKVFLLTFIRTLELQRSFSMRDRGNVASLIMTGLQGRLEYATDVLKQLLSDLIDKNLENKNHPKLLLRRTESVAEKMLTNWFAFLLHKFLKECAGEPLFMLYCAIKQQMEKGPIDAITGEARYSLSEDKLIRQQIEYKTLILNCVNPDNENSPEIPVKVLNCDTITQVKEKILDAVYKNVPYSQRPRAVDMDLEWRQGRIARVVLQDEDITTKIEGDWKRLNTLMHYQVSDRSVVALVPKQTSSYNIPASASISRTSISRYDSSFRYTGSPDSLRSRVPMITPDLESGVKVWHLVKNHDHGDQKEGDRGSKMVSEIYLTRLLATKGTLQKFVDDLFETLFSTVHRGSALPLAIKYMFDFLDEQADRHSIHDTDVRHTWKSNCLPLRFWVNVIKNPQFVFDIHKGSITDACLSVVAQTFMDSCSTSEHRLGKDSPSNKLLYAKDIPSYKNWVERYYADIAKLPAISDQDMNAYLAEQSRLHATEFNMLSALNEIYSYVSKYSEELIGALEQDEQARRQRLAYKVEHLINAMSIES
T1 sequence (P70207 other isoform, or with tags, fused parts or gaps): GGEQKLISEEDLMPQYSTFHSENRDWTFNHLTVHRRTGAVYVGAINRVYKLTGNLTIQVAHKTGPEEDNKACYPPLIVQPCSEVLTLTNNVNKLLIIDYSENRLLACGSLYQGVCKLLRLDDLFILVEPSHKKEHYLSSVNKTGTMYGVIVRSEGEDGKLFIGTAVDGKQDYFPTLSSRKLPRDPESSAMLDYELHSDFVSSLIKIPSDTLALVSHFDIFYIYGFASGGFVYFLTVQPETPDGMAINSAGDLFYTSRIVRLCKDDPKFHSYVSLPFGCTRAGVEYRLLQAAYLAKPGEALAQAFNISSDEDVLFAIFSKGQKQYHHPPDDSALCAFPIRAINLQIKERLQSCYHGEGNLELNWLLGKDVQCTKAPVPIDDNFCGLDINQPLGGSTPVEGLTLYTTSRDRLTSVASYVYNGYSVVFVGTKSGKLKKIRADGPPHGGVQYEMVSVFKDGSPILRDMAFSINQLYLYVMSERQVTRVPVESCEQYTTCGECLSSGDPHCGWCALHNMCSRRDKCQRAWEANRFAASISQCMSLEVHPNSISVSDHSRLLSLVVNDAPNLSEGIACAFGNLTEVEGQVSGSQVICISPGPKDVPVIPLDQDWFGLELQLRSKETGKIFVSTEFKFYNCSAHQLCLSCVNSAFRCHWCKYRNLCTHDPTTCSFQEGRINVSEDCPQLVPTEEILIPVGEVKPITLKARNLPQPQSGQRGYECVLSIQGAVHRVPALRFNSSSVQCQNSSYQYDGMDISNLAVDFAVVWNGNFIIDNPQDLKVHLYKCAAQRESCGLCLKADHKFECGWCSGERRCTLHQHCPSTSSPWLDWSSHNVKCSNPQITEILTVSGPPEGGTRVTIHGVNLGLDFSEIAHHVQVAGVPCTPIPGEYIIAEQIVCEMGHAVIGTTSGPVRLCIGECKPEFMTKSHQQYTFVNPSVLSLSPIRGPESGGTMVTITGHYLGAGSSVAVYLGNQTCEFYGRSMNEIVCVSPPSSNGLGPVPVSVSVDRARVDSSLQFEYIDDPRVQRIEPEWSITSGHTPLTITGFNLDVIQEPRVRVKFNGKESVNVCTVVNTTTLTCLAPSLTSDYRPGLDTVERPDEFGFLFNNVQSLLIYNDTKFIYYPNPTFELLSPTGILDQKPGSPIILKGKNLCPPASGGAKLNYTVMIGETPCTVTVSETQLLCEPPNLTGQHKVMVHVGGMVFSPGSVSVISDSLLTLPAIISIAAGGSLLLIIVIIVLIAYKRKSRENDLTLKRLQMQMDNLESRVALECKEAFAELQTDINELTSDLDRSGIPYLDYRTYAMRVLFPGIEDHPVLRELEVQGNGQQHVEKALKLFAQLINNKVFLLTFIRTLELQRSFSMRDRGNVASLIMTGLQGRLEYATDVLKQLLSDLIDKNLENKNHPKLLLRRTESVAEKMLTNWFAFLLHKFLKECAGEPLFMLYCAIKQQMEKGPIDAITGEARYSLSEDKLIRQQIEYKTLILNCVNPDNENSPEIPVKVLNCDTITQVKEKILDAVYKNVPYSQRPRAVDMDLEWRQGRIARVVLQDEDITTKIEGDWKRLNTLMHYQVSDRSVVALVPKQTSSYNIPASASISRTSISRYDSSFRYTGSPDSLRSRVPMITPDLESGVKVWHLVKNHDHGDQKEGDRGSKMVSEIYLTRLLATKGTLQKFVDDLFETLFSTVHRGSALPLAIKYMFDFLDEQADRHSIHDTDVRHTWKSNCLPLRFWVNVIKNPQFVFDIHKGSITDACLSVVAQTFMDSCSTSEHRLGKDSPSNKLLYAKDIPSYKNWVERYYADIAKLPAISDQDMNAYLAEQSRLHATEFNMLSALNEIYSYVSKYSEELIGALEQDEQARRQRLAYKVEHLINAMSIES

B1: recombinant Fc-dimerized AP-tagged Sema6A ectodomain (AP-Sema6Aect-Fc) (Fc fusion, mouse, UniProt O35464 18-648, looked up)
chain: AGFPEDSEPISISHGNYTKQYPVFVGHKPGRNTTQRHRLDIQMIMIMNRTLYVAARDHIYTVDIDTSHTEEIYCSKKLTWKSRQADVDTCRMKGKHKDECHNFIKVLLKKNDDTLFVCGTNAFNPSCRNYRVDTLETFGDEFSGMARCPYDAKHANIALFADGKLYSATVTDFLAIDAVIYRSLGDSPTLRTVKHDSKWLKEPYFVQAVDYGDYIYFFFREIAVEYNTMGKVVFPRVAQVCKNDMGGSQRVLEKQWTSFLKARLNCSVPGDSHFYFNILQAVTDVIRINGRDVVLATFSTPYNSIPGSAVCAYDMLDIANVFTGRFKEQKSPDSTWTPVPDERVPKPRPGCCAGSSSLEKYATSNEFPDDTLNFIKTHPLMDEAVPSIINRPWFLRTMVRYRLTKIAVDNAAGPYQNHTVVFLGSEKGIILKFLARIGSSGFLNGSLFLEEMNVYNPEKCSYDGVEDKRIMGMQLDRASGSLYVAFSTCVIKVPLGRCERHGKCKKTCIASRDPYCGWVRESGSCAHLSPLSRLTFEQDIERGNTDGLGDCHNSFVALNGHASSLYPSTTTSDSASRDGYESRGGMLDWNDLLEAPGSTDPLGAVSSHNHQDKKGVIRESYLKSNDQLVPV
notes: range 18-648; Used as culture supernatant of transfected HEK293T cells; also called Fc-dimerized recombinant AP-tagged ectodomain of Sema6A; not shown: alkaline phosphatase (AP) tag from the Aptag-4 vector; Fc from the pEF-Fc expression vector
Kd [1]: 3.21 nM

B2: Sema6A-AP (ligand, UniProt O35464 19-649, looked up)
chain: GFPEDSEPISISHGNYTKQYPVFVGHKPGRNTTQRHRLDIQMIMIMNRTLYVAARDHIYTVDIDTSHTEEIYCSKKLTWKSRQADVDTCRMKGKHKDECHNFIKVLLKKNDDTLFVCGTNAFNPSCRNYRVDTLETFGDEFSGMARCPYDAKHANIALFADGKLYSATVTDFLAIDAVIYRSLGDSPTLRTVKHDSKWLKEPYFVQAVDYGDYIYFFFREIAVEYNTMGKVVFPRVAQVCKNDMGGSQRVLEKQWTSFLKARLNCSVPGDSHFYFNILQAVTDVIRINGRDVVLATFSTPYNSIPGSAVCAYDMLDIANVFTGRFKEQKSPDSTWTPVPDERVPKPRPGCCAGSSSLEKYATSNEFPDDTLNFIKTHPLMDEAVPSIINRPWFLRTMVRYRLTKIAVDNAAGPYQNHTVVFLGSEKGIILKFLARIGSSGFLNGSLFLEEMNVYNPEKCSYDGVEDKRIMGMQLDRASGSLYVAFSTCVIKVPLGRCERHGKCKKTCIASRDPYCGWVRESGSCAHLSPLSRLTFEQDIERGNTDGLGDCHNSFVALNGHASSLYPSTTTSDSASRDGYESRGGMLDWNDLLEAPGSTDPLGAVSSHNHQDKKGVIRESYLKSNDQLVPVT
notes: Printed only as 'Sema6A-AP'; Order of the pieces follows the printed label only; not shown: alkaline phosphatase (AP) tag
binding result [2]: no binding
